# From publication doi:10.1101/2025.07.10.664163
# Tests used:
# [1] = biological target: Alexa-488 maleimide-labeled α-syn^ΔCTD (Δ104-140, A18C) (human) (UniProt P37840); test: fluorescence polarisation
# [2] = biological target: Alexa-488 maleimide-labeled α-synuclein (G132C) (human) (UniProt P37840); test: fluorescence polarisation
Substance,fold rise of Kd on removing the CTD of α-syn [1],Kd [2]
SARS-CoV-2 nucleocapsid protein with the CTD deleted (NP^ΔCTD) (domain or fragment),3.5 fold,1850 nM
SARS-CoV-2 nucleocapsid protein with the NTD deleted (NP^ΔNTD) (domain or fragment),4 fold,3670 nM
